The Human Domainome abundance scans (Beltran et al. 2025)
± gives the uncertainty stated by the source.

B1: RNA-binding E3 ubiquitin-protein ligase MEX3C, residues 325 to 391; numbered along this chain, Q5U5Q3 (parent)
chain: GQTTVQVRVPYRVVGLVVGPKGATIKRIQQQTHTYIVTPSRDKEPVFEVTGMPENVDRAREEIEMHI

Variants of: B1
Test: abundance fitness (aPCA) (normalised: wild type 0, dead -1); higher = more abundant; growth selection in yeast, the domain comes from the species named
Conditions: Homo sapiens

Abundance fitness: each site, then its substitutions
T34: Y -1.07 ± 0.33 | I -0.866 ± 0.25 | L -0.689 ± 0.096 | C -0.423 ± 0.14 | S -0.802 ± 0.13 | M -0.788 ± 0.14 | G -0.828 ± 0.1 | K -0.34 ± 0.12 | R -0.641 ± 0.068 | W -0.947 ± 0.2 | Q -1.01 ± 0.41 | N -0.791 ± 0.22 | P -0.867 ± 0.25 | F -0.969 ± 0.36 | D -0.503 ± 0.15 | A -0.877 ± 0.15
E44: C -0.834 ± 0.26 | V -0.472 ± 0.08 | F -0.906 ± 0.31 | S -0.459 ± 0.16 | Q -0.305 ± 0.23 | G -0.492 ± 0.059 | N -0.222 ± 0.17 | A -0.177 ± 0.068 | T -0.798 ± 0.37 | P -0.374 ± 0.18 | M -0.687 ± 0.25 | R -0.719 ± 0.1 | L -0.582 ± 0.094 | K -0.697 ± 0.17
I25: L -0.165 ± 0.081 | Y -0.502 ± 0.27 | F -0.905 ± 0.31 | M -0.571 ± 0.13 | K -0.754 ± 0.21 | R -0.39 ± 0.069 | G -0.68 ± 0.062 | E -0.786 ± 0.14 | H -0.62 ± 0.2 | A -0.811 ± 0.11 | T -0.75 ± 0.34 | P -0.64 ± 0.35 | C -0.58 ± 0.47
V37: C -0.205 ± 0.085 | H -0.582 ± 0.29 | D -0.377 ± 0.13 | A -0.23 ± 0.059 | T 0.136 ± 0.098 | I -0.089 ± 0.065 | E -0.422 ± 0.13 | F -1 ± 0.22 | K 0.216 ± 0.11 | L -0.315 ± 0.082 | Y -0.629 ± 0.16 | S -0.027 ± 0.073 | N -0.426 ± 0.18 | Q -0.094 ± 0.088 | R 0.138 ± 0.055 | M -0.095 ± 0.092 | P -0.724 ± 0.19 | W -0.811 ± 0.18
Q29: T -0.619 ± 0.12 | E -0.241 ± 0.07 | A 0.106 ± 0.062 | F -0.882 ± 0.29 | W -0.629 ± 0.097 | C -0.392 ± 0.18 | I -0.736 ± 0.38 | D -0.34 ± 0.23 | G -0.308 ± 0.068 | R -0.549 ± 0.071 | P -0.765 ± 0.18 | M 0.205 ± 0.091 | V -0.746 ± 0.15 | S -0.179 ± 0.082 | K -0.81 ± 0.14
T24: S -0.731 ± 0.13 | V -0.517 ± 0.099 | Q -0.818 ± 0.2 | R -0.366 ± 0.051 | Y -0.589 ± 0.23 | W -0.553 ± 0.13
K26: N -0.491 ± 0.15 | F -0.786 ± 0.27 | L -0.655 ± 0.11 | P -0.56 ± 0.14 | S -0.483 ± 0.14 | A -0.119 ± 0.06 | R -0.126 ± 0.054 | M -0.212 ± 0.15 | C -0.911 ± 0.34 | W -0.722 ± 0.12 | Q -0.343 ± 0.14 | G -0.769 ± 0.1 | H -0.66 ± 0.22 | D -0.417 ± 0.15 | T -0.61 ± 0.14 | Y -0.944 ± 0.34 | V -0.747 ± 0.11
T38: A -0.015 ± 0.064 | H -0.587 ± 0.46 | G 0.005 ± 0.047 | N -0.347 ± 0.23 | W -0.384 ± 0.081 | L -0.268 ± 0.09 | P -0.046 ± 0.11 | Y 0.017 ± 0.28 | F -0.516 ± 0.28 | R -0.403 ± 0.07 | C 0.005 ± 0.076 | M -0.271 ± 0.15 | I -0.177 ± 0.22 | V -0.174 ± 0.094 | K -0.333 ± 0.2 | S -0.01 ± 0.072 | D -0.275 ± 0.32
H33: N 0.171 ± 0.12 | R -0.165 ± 0.042 | D 0.184 ± 0.068 | G 0.081 ± 0.037 | L -0.582 ± 0.096 | K 0.016 ± 0.076 | W -1.15 ± 0.25 | M -0.213 ± 0.11 | Y -0.396 ± 0.11 | T -0.744 ± 0.2 | E -0.267 ± 0.091 | A -0.182 ± 0.061 | Q 0.088 ± 0.091 | F -0.438 ± 0.18 | C -0.426 ± 0.13 | P -0.845 ± 0.2
R41: L -0.21 ± 0.06 | I -0.15 ± 0.17 | A 0.017 ± 0.056 | G -0.154 ± 0.037 | C -0.067 ± 0.082 | H -0.109 ± 0.14 | P 0.071 ± 0.094 | Y -0.212 ± 0.28 | V -0.088 ± 0.063 | N -0.058 ± 0.16 | W -0.245 ± 0.073 | K 0.019 ± 0.15 | M -0.168 ± 0.078 | D 0.048 ± 0.11 | S -0.047 ± 0.062 | F -0.343 ± 0.17 | T -0.021 ± 0.083 | E -0.021 ± 0.074
P39: N -0.234 ± 0.16 | C -0.221 ± 0.13 | H -0.402 ± 0.17 | V -0.476 ± 0.074 | D -0.383 ± 0.11 | A -0.497 ± 0.079 | R -0.276 ± 0.059 | W -0.58 ± 0.11 | I -0.57 ± 0.24 | G -0.467 ± 0.07 | Q -0.477 ± 0.12 | K -0.149 ± 0.078 | F -0.286 ± 0.14 | Y -0.328 ± 0.26 | E -0.424 ± 0.088 | T -0.409 ± 0.089 | M -0.502 ± 0.12
Y35: G -0.511 ± 0.069 | F -0.02 ± 0.14 | D -0.283 ± 0.41 | C -0.132 ± 0.098 | P -0.773 ± 0.17 | V 0.129 ± 0.06 | K 0.284 ± 0.092 | W -0.135 ± 0.067 | M -0.044 ± 0.1 | N 0.1 ± 0.074 | T 0.307 ± 0.068 | I -0.069 ± 0.1 | S 0.15 ± 0.061 | E -0.041 ± 0.069 | L -0.046 ± 0.056 | R 0.2 ± 0.039 | A -0.044 ± 0.064 | H 0.164 ± 0.084 | Q 0.206 ± 0.077
I36: G -0.586 ± 0.064 | E -1.04 ± 0.22 | A -0.555 ± 0.1 | N -0.21 ± 0.25 | V -0.471 ± 0.11 | K -0.729 ± 0.3 | P -0.736 ± 0.14 | S -0.435 ± 0.091 | Q -0.801 ± 0.19 | M -0.885 ± 0.24 | T -0.899 ± 0.21 | R -0.715 ± 0.079 | W -0.736 ± 0.12 | F -0.941 ± 0.31
D42: G 0.099 ± 0.04 | S -0.332 ± 0.08 | C -0.425 ± 0.12 | I -0.342 ± 0.14 | Y -0.181 ± 0.1 | P -1.01 ± 0.31 | V -0.465 ± 0.069 | T -0.245 ± 0.078 | W -0.335 ± 0.088 | N -0.071 ± 0.1 | R -0.408 ± 0.052 | A -0.292 ± 0.056 | M -0.128 ± 0.089 | L -0.263 ± 0.066 | F -0.198 ± 0.17 | H -0.191 ± 0.091 | K -0.139 ± 0.11 | Q -0.122 ± 0.11
S40: Y -0.137 ± 0.33 | I -0.34 ± 0.24 | N 0.032 ± 0.13 | W -0.215 ± 0.07 | Q -0.033 ± 0.1 | P 0.08 ± 0.072 | F -0.349 ± 0.13 | K -0.072 ± 0.081 | G 0.03 ± 0.047 | M -0.016 ± 0.1 | C -0.332 ± 0.093 | T -0.081 ± 0.092 | V -0.229 ± 0.066 | H -0.352 ± 0.23 | D 0.138 ± 0.1 | A 0.021 ± 0.067 | L -0.133 ± 0.057 | E -0.029 ± 0.1
Q31: F -0.452 ± 0.47 | S -0.319 ± 0.088 | N -0.048 ± 0.11 | G -0.57 ± 0.071 | K 0.035 ± 0.11 | D -0.001 ± 0.13 | M 0.048 ± 0.07 | L -0.128 ± 0.068 | C -0.69 ± 0.23 | V -0.109 ± 0.07 | I -0.18 ± 0.17 | P -0.65 ± 0.21 | R 0.036 ± 0.04 | A -0.272 ± 0.092 | T -0.261 ± 0.085 | W -0.966 ± 0.22 | E 0.252 ± 0.079
T32: A -0.712 ± 0.12 | E -0.707 ± 0.15 | H -0.488 ± 0.17 | V -0.682 ± 0.084 | Y -0.777 ± 0.25 | M -0.653 ± 0.2 | D -0.575 ± 0.12 | P -0.654 ± 0.15 | W -0.916 ± 0.19 | Q -0.669 ± 0.17 | C -0.578 ± 0.17 | I -0.944 ± 0.23 | R -0.938 ± 0.14 | L -0.734 ± 0.11
R27: Q -0.399 ± 0.3 | P -0.834 ± 0.36 | T -0.38 ± 0.17 | S -0.465 ± 0.1 | I -0.901 ± 0.48 | N -0.59 ± 0.17 | F -0.755 ± 0.37 | V -0.577 ± 0.11 | L -0.665 ± 0.17 | A -0.37 ± 0.069 | M -0.346 ± 0.19 | W -0.241 ± 0.1 | E -0.512 ± 0.12 | K 0.111 ± 0.16 | C -0.832 ± 0.25 | D -0.656 ± 0.13 | G -0.591 ± 0.065
I28: M -0.639 ± 0.17 | F -0.467 ± 0.39 | Q -0.576 ± 0.17 | C -0.874 ± 0.48 | P -0.376 ± 0.26 | H -0.751 ± 0.27 | V -0.496 ± 0.11 | A -0.695 ± 0.2 | E -0.952 ± 0.28 | G -0.883 ± 0.14 | L -0.559 ± 0.1 | T -0.288 ± 0.18 | R -0.419 ± 0.067 | W -1.2 ± 0.33
Q30: L -0.505 ± 0.093 | R -0.126 ± 0.047 | V -0.536 ± 0.12 | A -0.01 ± 0.084 | M -0.377 ± 0.094 | E -0.022 ± 0.099 | S -0.435 ± 0.081 | F -0.773 ± 0.3 | D -0.053 ± 0.13 | P -0.899 ± 0.21 | W -0.566 ± 0.076 | C -0.805 ± 0.27 | K -0.016 ± 0.095 | T -0.183 ± 0.11 | Y -0.664 ± 0.25 | H -0.23 ± 0.33 | G -0.609 ± 0.074
K43: C -0.1 ± 0.067 | A 0.058 ± 0.05 | R -0.133 ± 0.039 | Y -0.46 ± 0.15 | V -0.423 ± 0.069 | D 0.131 ± 0.078 | G 0.108 ± 0.035 | F -0.431 ± 0.13 | T -0.05 ± 0.066 | P -0.565 ± 0.1 | N -0.093 ± 0.11 | S 0.12 ± 0.048 | M 0.125 ± 0.078 | L -0.579 ± 0.081 | Q -0.059 ± 0.072 | H 0.012 ± 0.093 | W -0.435 ± 0.072 | E -0.191 ± 0.072 | I -0.583 ± 0.14
